One test relates to HCT116 cells. The test can be described thus: Cell growth by WST-1 assay, HCT116. The test is classed as cell-based, human. The note with it: 50 nM EpEX and SU 10 μM, FIG. 2D. The method, then: FIGS. 2A to 2K. EpEX promotes tumor progression via HGFR signaling. (FIG. 2A) WT or EpCAM knockout (KO) HCT116 and HT29 cells treated with HGF (0.5 nM) for 15 min. The phosphorylation of HGFR, AKT, and ERK was examined by Western blotting. (FIG. 2B) WT or KO HCT116 and HT29 cells were treated with HGF (0.5 nM) with 2% FBS for the indicated times. Cell growth was examined by the WST-1 assay. (FIG. 2C) Starved HCT116 cells were treated with HGFR inhibitor SU11274 (SU, 10 μM) for 1 h then treated with 50 nM of EpEX-His for 15 min. The levels of phosphorylated HGFR, EGFR, AKT, and ERK were examined by Western blotting. HCT116 and HT29 cells were treated with 50 nM EpEX and SU (10 μM). (FIG. 2D) Cell growth was examined by WST-1 assay after treatment for indicated time. (FIG. 2E) HCT116 cells were treated with shLuc or HGFR shRNA then treated with 50 nM of EpEX-His for 15 min. The levels of phosphorylated HGFR, EGFR, ERK, and AKT were examined in HGFR knockdown HCT116 cells by Western blotting. (FIG. 2F) The levels of phosphorylated ADAM17 and presenilin 2 were examined by Western blotting. […]
Cell viability was assayed by measuring mitochondrial dehydrogenase activity with the WST-1 (4-[3-(4-lodophenyl)-2-(4-nitrophenyl)-2H-5-tetrazolio]-1, 3-benzene disulfonate) assay. […] Following the incubation, absorbance of each well was detected at 450 nm using a spectrophotometric microplate reader.

The target in the next test is T1, EpCAM and HGFR (Homo sapiens, UniProt P16422).
T1 construct: as detected by IP of endogenous proteins in HCT116 cells; endogenous in cells; host or cells: HCT116
T1 sequence (P16422 24-314): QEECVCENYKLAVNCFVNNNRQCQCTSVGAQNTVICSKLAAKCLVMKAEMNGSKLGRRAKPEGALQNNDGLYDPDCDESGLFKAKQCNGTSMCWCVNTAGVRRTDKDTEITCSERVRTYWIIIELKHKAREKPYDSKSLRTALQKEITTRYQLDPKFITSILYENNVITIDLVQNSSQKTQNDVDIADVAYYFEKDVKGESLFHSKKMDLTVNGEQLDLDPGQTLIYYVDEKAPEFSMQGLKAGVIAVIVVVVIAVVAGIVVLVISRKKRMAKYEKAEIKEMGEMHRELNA
The test can be described thus: Immunoprecipitation of endogenous EpCAM and HGFR in HCT116 cells. The test is classed as cell-based. Particulars: 6 h treatment, IP of endogenous proteins, FIG. 6E. The method, then:
FIGS. 6A to 6J. EpAb2-6 inhibits EpCAM and HGFR signaling and promotes active β-catenin and Snail protein degradation via activating GSK3β. (FIG. 6A) HCT116 cells were treated with 10 μg/ml control IgG (normal mouse IgG, NMIgG) or mouse EpAb2-6 (EpAb2-6) for 16 h, followed by treatment with EpEX-His (50 nM) for 15 min. Levels of phosphorylated HGFR, AKT, FAK, GSK3β, ERK, ADAM17, and presenilin 2 were examined by Western blotting. (FIG. 6B) HCT116 cells were treated with 10 μg/ml control IgG or mouse EpAb2-6 for 16 h, followed by treatment without or with HGF (0.5 nM) for 15 min. Levels of phosphorylated HGFR, AKT, and ERK were examined by Western blotting. HCT116 cells were treated with mouse EpAb2-6 (10 μg/ml) and HGF (0.5 nM). […] (FIG. 6D) Cell invasion was assessed by a Transwell assay with matrigel after 24 h. […] (FIG. 6F) EpEX-His (2 μg/ml) co-treated with 1 μg IgG or EpAb2-6 was added to HGFR-Fc-coated (1 μg/ml) ELISA plates and detected by TMB colorimetric peroxidase assay. (FIG. 6G) EMT associated protein levels were detected by Western blotting in HCT116 cells treated with NMIgG or EpAb2-6 for 24 h. (FIG. 6H) Protein expression was analyzed by Western blotting in HCT116 cells after treatment with EpAb2-6 and 2 μM GSK3β inhibitor (BIO) for 24 h. Quantification of the normalized protein expression in the bottom panel. […]

A further test has as its system HCT116-Luc cells. As to the kind of experiment: Orthotopic animal model, HCT116-Luc. The note with it: EpAb2-6 15 mg/kg, crizotinib 20 mg/kg, FIG. 9D, 9E.
The test system of a further test is HCT116 or HT29. The test can be described thus: Metastatic and orthotopic animal models of colon cancer, overall statements.

Description for HCT116 or HT29: Colon cancer HCT116 or HT29 (5×10^6 cells/mouse) in PBS were injected into 4-6-week-old female NOD/SCID mice through the tail vein. Mice were then randomly assigned to different treatment groups by body weight. After 3 days, antibodies were administered through tail vein injection twice a week for four consecutive weeks. Crizotinib was administered daily by oral gavage for 5 days per week (treatment for four weeks). For the therapeutic study, tumor-bearing mice were treated with isotype control IgG1 (15 mg/kg), crizotinib (20 mg/kg), EpAb2-6 (15 mg/kg), or crizotinib (20 mg/kg) combined with EpAb2-6 (15 mg/kg). Mouse survival rate were measured.
Orthotopic tumor models were created as previously reported (Chen et al., 2020). Briefly, NSCID mice were used for orthotopic implantation of HCT116 cells previously infected with Lenti-luc virus (lentivirus containing luciferase gene). The mice were anesthetized by i.p. injection ofAvertin, 2,2,2-Tribromo-ethanol (Sigma-Aldrich) at a dose of 250 mg/kg. Tumor development was monitored by bioluminescence imaging. For the therapeutic study, tumor-bearing mice were treated with isotype control IgG1 (15 mg/kg), crizotinib (20 mg/kg), EpAb2-6 (15 mg/kg), or crizotinib (20 mg/kg) combined with EpAb2-6 (15 mg/kg). Tumor progression was monitored by quantification of bioluminescence. Mouse survival was also monitored.
Description for HCT116-Luc cells: (FIG. 9C) Timeline of the experiment to evaluate EpAb2-6 and/or crizotinib in the in orthotopic animal models. (FIG. 9D) NOD/SCID mice received orthotopic implantation of HCT116-Luc cells and then were treated with control IgG (normal mouse IgG, NMIgG), crizotinib, EpAb2-6, or crizotinib combined with EpAb2-6 starting at 3 days after tumor inoculation (n=5). Tumor growth was monitored by examining bioluminescence with the IVIS 200 Imaging System. (FIG. 9E) HCT116-Luc tumor cells monitored by bioluminescence quantification. […] (FIG. 9H) NOD/SCID mice were orthotopically implanted with HT29-Luc cells and then treated with control IgG, crizotinib, EpAb2-6, or crizotinib combined with EpAb2-6 starting at 3 days after tumor inoculation (n=5). Tumor growth was monitored by examining bioluminescence with an IVIS 200 Imaging System. (FIG. 9I) HT29-Luc tumor cells monitored by bioluminescence quantification.
Orthotopic tumor models were created as previously reported (Chen et al., 2020). Briefly, NSCID mice were used for orthotopic implantation of HCT116 cells previously infected with Lenti-luc virus (lentivirus containing luciferase gene). […] Tumor development was monitored by bioluminescence imaging. […] Tumor progression was monitored by quantification of bioluminescence. Mouse survival was also monitored.

As for `Cc1[nH]c(C=C2C(=O)Nc3ccc(S(=O)(=O)N(C)c4cccc(Cl)c4)cc32)c(C)c1C(=O)N1CCN(C)CC1` (stereo in doubt) [SU11274, (3Z)-N-(3-Chlorophenyl)-3-({3,5-dimethyl-4-[(4-methylpiperazin-1-yl)carbonyl]-1H-pyrrol-2-yl}methylene)-N-methyl-2-oxo-2,3-dihydro-1H-indole-5-sulfonamide], the “EpEX-induced increases in cell viability and proliferation” value in the test with HCT116 cells is “abolished the EpEX-induced increases in cell viability and proliferation”.

B1: EpAb2-6: anti-EpCAM neutralizing monoclonal antibody targeting EpEX; VH SEQ ID NO: 15, VL SEQ ID NO: 16 (antibody, listed as Homo sapiens, V domains shown)
VH: VKLQESGPELKKPGETVKISCKASGYTFTDYSMHWVKQAPGKGLKWMGWINTETGEPTYADDFKGRFAFSLETSASTAYLQINNLKNEDTATYFCARTAVYWGQGTTVTVSS
VL: DIQMTQSPSSLSASLGERVSLTCRASQEISVSLSWLQQEPDGTIKRLIYATSTLDSGVPKRFSGSRSGSDYSLTISSLESEDFVDYYCLQYASYPWTFGGGTKLEIKRADAAPTVS
As to B1, the “association between EpCAM and HGFR” value with EpCAM and HGFR is “decreased the association between EpCAM and HGFR”. Also, in the test with HCT116-Luc cells, the bioluminescence intensities result is on record as “significantly decreased compared to the control IgG or crizotinib alone groups”. Besides, in the test on HCT116 or HT29, the survival result is “higher median survival than the control IgG- or crizotinib-treated groups” and the tumor progression result was “much slower tumor progression”.
